One block for each molecule: values may come before it. Numbered stars: 1 amine (or outer) side, 2 acyl side, 3 side chain; on linkers, the order of the positions; unused ones are H or OH. Square brackets hold non-standard residues; d marks the D form. Caf = 4′-carboxyphenylazophenylalanine, O=C([C@H](Cc1ccc(/N=N/c2ccc(C(=O)[*:3])cc2)cc1)N[*:1])[*:2]
Test system: mouse anti-6×His antibody alkaline phosphatase (AP) conjugate
Test: ELISA for light-induced reversible binding of an immunoglobulin to ProtL^Caf-ABD fusion proteins
Conditions: for change in enzyme activity of bound Ig-AP conjugate after irradiation with UV light: UV light at 365 nm, 5 min; for affinity for the IgG (ELISA signal): ground state / illuminated with visible light
Method: ELISA was performed at ambient temperature in a 96-well Maxisorb microtiter plate (Nunc, Langenselbold, Germany).
Then, the wells were blocked with […] Roti-Block (Carl Roth, Karlsruhe, Germany) diluted 1:10 in ddH2O for 1 h and washed three times with PBS containing 0.1% v/v Tween 20 (PBS/T). After that, the purified ProtL^Caf-ABD fusion protein from Example 11 was applied in a dilution series in PBS/T and incubated for 1 h to effect complex formation between the ABD moiety and the pre-adsorbed HSA. The wells were then washed three times with PBS/T and incubated with 50 μl of a 1:1000 dilution in PBS/T of the aforementioned mouse anti-6×His Ig-AP conjugate.
All subsequent washing steps were performed in the dark. […] After 5 min at 25° C., the absorbance at 405 nm was measured using a SpectraMax 250 microtiter plate reader (Molecular Devices, Sunnyvale, Calif., USA).

B1: ProtL^Caf368: ProtL-ABD fusion protein modified with Caf at position 368 (protein)
chain: MKEEVTIKVNLIFADGKTQTAEFKGTFEEATAKAYAYADLLAK[Caf]NGEYTADLEDGGNTINIKFAGGAVDANSLAEAKVLANRELDKYGVSDYYKNLINNAKTVEGVKALIDEILAALP
change in enzyme activity of bound Ig-AP conjugate after irradiation with UV light: much less signal decrease

B2: ProtL^Caf369: ProtL-ABD fusion protein modified with Caf at position 369 (protein)
chain: MKEEVTIKVNLIFADGKTQTAEFKGTFEEATAKAYAYADLLAKE[Caf]GEYTADLEDGGNTINIKFAGGAVDANSLAEAKVLANRELDKYGVSDYYKNLINNAKTVEGVKALIDEILAALP
change in enzyme activity of bound Ig-AP conjugate after irradiation with UV light: much less signal decrease

B3: ProtL-ABD: unmodified protein L domain B1 fused to a human albumin-binding domain (SEQ ID NO: 61) (protein)
chain: MKEEVTIKVNLIFADGKTQTAEFKGTFEEATAKAYAYADLLAKENGEYTADLEDGGNTINIKFAGGAVDANSLAEAKVLANRELDKYGVSDYYKNLINNAKTVEGVKALIDEILAALP
modifications: ProtL-ABD fusion protein
change in enzyme activity of bound Ig-AP conjugate after irradiation with UV light: did not reveal any change in binding activity

Kd (ground state (no UV), curve fit of the ELISA data, read-out: dissociation constant for the complex with the anti-6×His antibody): ~140 nM
affinity for the IgG (ELISA signal): showed affinity for the IgG
affinity for the IgG (ELISA signal) (listed as Caf337): high affinity
B4: ProtL^Caf337: ProtL-ABD fusion protein with Caf at position 337 and mutations Tyr361Asn and Leu365Ser (SEQ ID NO: 86) (protein)
chain: MKEEVTIKVNLI[Caf]ADGKTQTAEFKGTFEEATAKAYANADLSAKENGEYTADLEDGGNTINIKFAGGAVDANSLAEAKVLANRELDKYGVSDYYKNLINNAKTVEGVKALIDEILAALP
change in enzyme activity of bound Ig-AP conjugate after irradiation with UV light: clear decrease
dissociation constant for the complex with the anti-6×His antibody (after irradiation with UV light at 365 nm): too low to deduce a dissociation constant

B5: ProtL^Caf360: ProtL-ABD fusion protein modified with Caf at position 360 (protein)
chain: MKEEVTIKVNLIFADGKTQTAEFKGTFEEATAKAY[Caf]YADLLAKENGEYTADLEDGGNTINIKFAGGAVDANSLAEAKVLANRELDKYGVSDYYKNLINNAKTVEGVKALIDEILAALP
change in enzyme activity of bound Ig-AP conjugate after irradiation with UV light: much less signal decrease

B6: ProtL^Caf364: ProtL-ABD fusion protein modified with Caf at position 364 (protein)
chain: MKEEVTIKVNLIFADGKTQTAEFKGTFEEATAKAYAYAD[Caf]LAKENGEYTADLEDGGNTINIKFAGGAVDANSLAEAKVLANRELDKYGVSDYYKNLINNAKTVEGVKALIDEILAALP
change in enzyme activity of bound Ig-AP conjugate after irradiation with UV light: much less signal decrease

B7: ProtL^Caf347: ProtL-ABD fusion protein with Caf at position 347 and mutation Tyr361Ala (protein)
chain: MKEEVTIKVNLIFADGKTQTAE[Caf]KGTFEEATAKAYAAADLLAKENGEYTADLEDGGNTINIKFAGGAVDANSLAEAKVLANRELDKYGVSDYYKNLINNAKTVEGVKALIDEILAALP
change in enzyme activity of bound Ig-AP conjugate after irradiation with UV light: much less signal decrease
